Measured values taken from paper PMC2278140, “Regulation of the cd38 promoter in human airway smooth muscle cells by TNF-α and dexamethasone”.

Legend:
Details in all cases: protein: commercial; chain copies: 2; label: 32P 5' end; blunt
[1] = target: T1, glucocorticoid receptor (GR) (human, UniProt P04150 1-777); experiment: competition; excess unlabeled self vs labeled GRE3; 20% glycerol, 5 mM MgCl2, 2.5 mM EDTA, 2.5 mM DTT, 250 mM NaCl, 50 mM Tris-HCl pH 7.5, 0.25 mg/ml poly(dI-dC), room temperature 30 min; 0.4 pmol probe in 10 μl, 5 μg extract or 1 μg GR
T1 sequence (P04150 whole entry): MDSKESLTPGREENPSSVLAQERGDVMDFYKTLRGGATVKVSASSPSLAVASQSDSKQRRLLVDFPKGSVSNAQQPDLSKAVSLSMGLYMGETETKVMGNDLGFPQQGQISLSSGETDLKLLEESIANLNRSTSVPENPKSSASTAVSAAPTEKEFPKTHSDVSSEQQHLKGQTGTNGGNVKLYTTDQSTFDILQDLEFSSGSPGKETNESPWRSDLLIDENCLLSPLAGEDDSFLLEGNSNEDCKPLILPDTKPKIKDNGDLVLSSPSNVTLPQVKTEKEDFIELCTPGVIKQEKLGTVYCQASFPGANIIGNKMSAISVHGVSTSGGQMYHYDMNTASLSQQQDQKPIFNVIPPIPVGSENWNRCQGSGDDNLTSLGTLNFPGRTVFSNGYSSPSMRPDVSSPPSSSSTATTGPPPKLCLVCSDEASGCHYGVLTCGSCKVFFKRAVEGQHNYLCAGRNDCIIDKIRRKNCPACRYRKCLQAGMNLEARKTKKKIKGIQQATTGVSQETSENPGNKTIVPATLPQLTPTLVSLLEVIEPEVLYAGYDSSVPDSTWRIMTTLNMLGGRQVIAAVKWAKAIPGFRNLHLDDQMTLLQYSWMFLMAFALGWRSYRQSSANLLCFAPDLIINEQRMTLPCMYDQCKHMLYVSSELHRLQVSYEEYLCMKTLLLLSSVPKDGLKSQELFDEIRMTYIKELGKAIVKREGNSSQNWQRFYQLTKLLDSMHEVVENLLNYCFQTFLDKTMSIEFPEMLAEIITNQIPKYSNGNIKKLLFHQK

[2] = target: T1, glucocorticoid receptor (GR); experiment: competition; excess unlabeled self vs labeled GRE4; 20% glycerol, 5 mM MgCl2, 2.5 mM EDTA, 2.5 mM DTT, 250 mM NaCl, 50 mM Tris-HCl pH 7.5, 0.25 mg/ml poly(dI-dC), room temperature 30 min; 0.4 pmol probe in 10 μl, 5 μg extract or 1 μg GR
[3] = target: T1, glucocorticoid receptor (GR); experiment: EMSA; anti-GR supershift; 20% glycerol, 5 mM MgCl2, 2.5 mM EDTA, 2.5 mM DTT, 250 mM NaCl, 50 mM Tris-HCl pH 7.5, 0.25 mg/ml poly(dI-dC), room temperature 30 min; 0.4 pmol probe in 10 μl, 5 μg extract or 1 μg GR
[4] = target: T1, glucocorticoid receptor (GR); experiment: EMSA; 20% glycerol, 5 mM MgCl2, 2.5 mM EDTA, 2.5 mM DTT, 250 mM NaCl, 50 mM Tris-HCl pH 7.5, 0.25 mg/ml poly(dI-dC), room temperature 30 min; 0.4 pmol probe in 10 μl, 5 μg extract or 1 μg GR
[5] = target: T1, glucocorticoid receptor (GR); experiment: competition; excess unlabeled vs labeled GRE consensus; 20% glycerol, 5 mM MgCl2, 2.5 mM EDTA, 2.5 mM DTT, 250 mM NaCl, 50 mM Tris-HCl pH 7.5, 0.25 mg/ml poly(dI-dC), room temperature 30 min; 0.4 pmol probe in 10 μl, 5 μg extract or 1 μg GR

B1: GRE3 (dsDNA)
DNA 1: AAGCACTGCCATGTTCTCACTTATAAGT
DNA 2: ACTTATAAGTGAGAACATGGCAGTGCTT
B1: binds [1].

B2: GRE4 (dsDNA)
DNA 1: GCCATTGTAACTGTTCTCCATCCTTATC
DNA 2: GATAAGGATGGAGAACAGTTACAATGGC
B2: binds [2].

B3: GRE consensus (dsDNA)
DNA 1: TAGAGGATCTGTACAGGATGTTCTAGAT
DNA 2: ATCTAGAACATCCTGTACAGATCCTCTA
B3: binds [3].

B4: GRE1 (dsDNA)
DNA 1: AATGTCACAGATGTTCTCTTAATAAAGA
DNA 2: TCTTTATTAAGAGAACATCTGTGACATT
B4: binds [4].

B5: GRE2 (dsDNA)
DNA 1: TTCCGAACTTCTGTTCTGTTTCCCTCAA
DNA 2: TTGAGGGAAACAGAACAGAAGTTCGGAA
B5: no binding [5].
